# In the supplement of paper PMC10065799, “High-throughput profiling of sequence recognition by tyrosine kinases and SH2 domains using bacterial peptide display” (eLife, 2023):
# Columns and labels:
# [1] = target: FGFR1 (UniProt P11362); test: phosphorylation enrichment, bacterial display (enrichment ratio); higher = better substrate or ligand; peptides without Tyr show the background
# [2] = target: MERTK (UniProt Q12866); test: as above
# [3] = target: Fes (UniProt P07332); test: as above
# [4] = target: EPHB2 (UniProt P29323); test: as above
# EPHB2, sequence (P29323 whole entry, looked up): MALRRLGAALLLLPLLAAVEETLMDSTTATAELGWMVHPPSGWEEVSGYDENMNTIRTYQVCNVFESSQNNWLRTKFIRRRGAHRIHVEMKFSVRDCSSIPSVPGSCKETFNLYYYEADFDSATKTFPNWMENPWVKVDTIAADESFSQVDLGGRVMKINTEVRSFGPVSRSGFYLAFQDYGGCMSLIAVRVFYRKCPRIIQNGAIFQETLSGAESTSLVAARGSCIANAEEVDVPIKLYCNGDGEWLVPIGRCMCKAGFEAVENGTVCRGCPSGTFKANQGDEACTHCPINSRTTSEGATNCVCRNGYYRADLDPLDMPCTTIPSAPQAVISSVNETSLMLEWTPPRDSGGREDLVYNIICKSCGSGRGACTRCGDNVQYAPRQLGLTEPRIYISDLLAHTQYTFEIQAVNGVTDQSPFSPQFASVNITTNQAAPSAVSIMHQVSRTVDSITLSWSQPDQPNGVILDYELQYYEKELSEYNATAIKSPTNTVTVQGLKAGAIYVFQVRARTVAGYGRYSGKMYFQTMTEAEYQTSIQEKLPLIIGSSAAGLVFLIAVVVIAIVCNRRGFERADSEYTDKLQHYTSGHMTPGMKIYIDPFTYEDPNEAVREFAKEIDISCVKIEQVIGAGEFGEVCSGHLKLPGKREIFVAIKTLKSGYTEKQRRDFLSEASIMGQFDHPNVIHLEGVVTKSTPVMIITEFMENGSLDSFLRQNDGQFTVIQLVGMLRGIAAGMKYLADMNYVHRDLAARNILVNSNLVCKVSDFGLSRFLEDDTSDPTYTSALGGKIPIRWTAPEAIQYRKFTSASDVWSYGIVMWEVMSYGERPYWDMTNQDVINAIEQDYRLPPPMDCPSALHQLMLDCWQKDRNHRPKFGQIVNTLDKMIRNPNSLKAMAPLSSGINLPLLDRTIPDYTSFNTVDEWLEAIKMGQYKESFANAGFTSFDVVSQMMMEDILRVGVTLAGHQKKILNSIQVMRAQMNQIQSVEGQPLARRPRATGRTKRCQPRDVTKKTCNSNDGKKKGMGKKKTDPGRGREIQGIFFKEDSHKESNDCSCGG
# [5] = target: EPHB1 (UniProt P54762); test: as above
# EPHB1, sequence (P54762 whole entry, looked up): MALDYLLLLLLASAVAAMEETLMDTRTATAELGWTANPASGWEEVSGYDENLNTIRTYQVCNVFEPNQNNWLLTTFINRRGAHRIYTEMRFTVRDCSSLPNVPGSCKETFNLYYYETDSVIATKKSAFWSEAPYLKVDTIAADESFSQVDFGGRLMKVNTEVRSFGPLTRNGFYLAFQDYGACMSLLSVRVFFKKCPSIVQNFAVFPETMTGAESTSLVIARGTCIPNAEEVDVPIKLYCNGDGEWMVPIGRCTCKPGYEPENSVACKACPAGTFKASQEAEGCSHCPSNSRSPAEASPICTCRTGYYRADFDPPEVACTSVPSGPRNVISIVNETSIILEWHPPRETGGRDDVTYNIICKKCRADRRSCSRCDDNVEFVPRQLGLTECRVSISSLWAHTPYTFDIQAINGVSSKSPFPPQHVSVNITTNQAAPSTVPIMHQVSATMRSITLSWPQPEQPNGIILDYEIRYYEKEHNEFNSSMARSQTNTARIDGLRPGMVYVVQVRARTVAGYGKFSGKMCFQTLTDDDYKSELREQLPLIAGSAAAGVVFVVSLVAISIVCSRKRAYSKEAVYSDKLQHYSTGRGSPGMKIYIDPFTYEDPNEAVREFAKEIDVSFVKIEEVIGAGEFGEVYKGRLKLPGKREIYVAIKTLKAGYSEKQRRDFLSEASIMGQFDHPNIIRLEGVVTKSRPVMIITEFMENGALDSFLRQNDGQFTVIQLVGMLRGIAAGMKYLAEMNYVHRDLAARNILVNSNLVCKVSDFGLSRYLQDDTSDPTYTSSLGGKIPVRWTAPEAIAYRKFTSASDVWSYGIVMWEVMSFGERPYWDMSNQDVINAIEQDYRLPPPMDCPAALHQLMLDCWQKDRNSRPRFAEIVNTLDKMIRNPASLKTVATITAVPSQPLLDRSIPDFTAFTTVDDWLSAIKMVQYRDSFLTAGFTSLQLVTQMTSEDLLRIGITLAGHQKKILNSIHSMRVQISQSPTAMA
# [6] = tested on: c-Src; test: as above
# [7] = tested on: c-Abl (mouse); test: as above
# [8] = tested on: Fer (mouse); test: as above
# [9] = target: Jak2 (UniProt O60674); test: as above
# Jak2, sequence (O60674 whole entry, looked up): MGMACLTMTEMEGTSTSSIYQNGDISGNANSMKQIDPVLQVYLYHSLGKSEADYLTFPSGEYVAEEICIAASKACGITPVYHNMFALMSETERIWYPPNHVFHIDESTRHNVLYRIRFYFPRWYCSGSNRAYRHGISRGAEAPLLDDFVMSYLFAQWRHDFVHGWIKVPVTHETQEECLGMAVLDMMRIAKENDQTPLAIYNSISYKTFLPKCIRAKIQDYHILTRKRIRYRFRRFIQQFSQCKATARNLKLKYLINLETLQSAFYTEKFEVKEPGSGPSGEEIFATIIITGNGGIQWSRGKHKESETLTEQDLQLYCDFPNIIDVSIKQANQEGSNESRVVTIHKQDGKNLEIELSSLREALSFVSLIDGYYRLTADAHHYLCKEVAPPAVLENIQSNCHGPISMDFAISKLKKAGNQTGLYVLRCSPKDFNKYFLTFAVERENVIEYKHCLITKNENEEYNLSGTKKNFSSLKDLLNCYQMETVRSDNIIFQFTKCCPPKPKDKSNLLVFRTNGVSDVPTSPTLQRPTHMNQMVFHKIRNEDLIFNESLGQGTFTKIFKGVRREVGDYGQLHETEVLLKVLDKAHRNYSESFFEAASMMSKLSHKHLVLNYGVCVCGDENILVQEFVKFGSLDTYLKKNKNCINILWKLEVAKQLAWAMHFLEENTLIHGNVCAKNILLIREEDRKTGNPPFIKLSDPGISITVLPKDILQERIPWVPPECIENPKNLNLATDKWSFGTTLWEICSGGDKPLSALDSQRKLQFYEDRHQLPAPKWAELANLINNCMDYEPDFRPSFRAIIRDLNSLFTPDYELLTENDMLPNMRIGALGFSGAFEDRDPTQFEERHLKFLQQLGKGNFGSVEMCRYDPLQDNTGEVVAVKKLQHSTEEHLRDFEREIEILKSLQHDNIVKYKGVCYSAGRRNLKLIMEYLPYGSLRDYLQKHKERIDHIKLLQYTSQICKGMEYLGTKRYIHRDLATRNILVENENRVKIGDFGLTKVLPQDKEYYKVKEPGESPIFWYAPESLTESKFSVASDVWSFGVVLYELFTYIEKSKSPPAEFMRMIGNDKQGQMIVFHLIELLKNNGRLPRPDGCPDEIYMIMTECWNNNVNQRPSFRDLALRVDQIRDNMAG
# [10] = target: Hck (UniProt P08631); test: as above
# Hck, sequence (P08631 whole entry, looked up): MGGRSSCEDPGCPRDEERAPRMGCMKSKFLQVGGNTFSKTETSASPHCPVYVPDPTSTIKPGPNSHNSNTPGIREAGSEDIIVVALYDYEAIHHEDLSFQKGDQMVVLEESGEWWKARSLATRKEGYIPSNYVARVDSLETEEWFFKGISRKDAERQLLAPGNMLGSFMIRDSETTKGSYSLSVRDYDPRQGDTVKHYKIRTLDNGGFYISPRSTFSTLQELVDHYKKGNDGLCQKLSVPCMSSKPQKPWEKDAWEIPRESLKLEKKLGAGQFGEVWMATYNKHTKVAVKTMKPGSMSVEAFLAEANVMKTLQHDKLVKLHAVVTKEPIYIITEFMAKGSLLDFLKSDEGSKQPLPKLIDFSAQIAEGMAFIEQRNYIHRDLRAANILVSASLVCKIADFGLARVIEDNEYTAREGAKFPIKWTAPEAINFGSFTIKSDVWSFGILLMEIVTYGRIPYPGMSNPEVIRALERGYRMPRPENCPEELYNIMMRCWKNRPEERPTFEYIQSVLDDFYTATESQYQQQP
# [11] = tested on: AncSZ; test: as above
# [12] = target: FGFR3 (UniProt P22607); test: as above
# [13] = target: Fyn (UniProt P06241); test: as above
# Fyn, sequence (P06241 whole entry, looked up): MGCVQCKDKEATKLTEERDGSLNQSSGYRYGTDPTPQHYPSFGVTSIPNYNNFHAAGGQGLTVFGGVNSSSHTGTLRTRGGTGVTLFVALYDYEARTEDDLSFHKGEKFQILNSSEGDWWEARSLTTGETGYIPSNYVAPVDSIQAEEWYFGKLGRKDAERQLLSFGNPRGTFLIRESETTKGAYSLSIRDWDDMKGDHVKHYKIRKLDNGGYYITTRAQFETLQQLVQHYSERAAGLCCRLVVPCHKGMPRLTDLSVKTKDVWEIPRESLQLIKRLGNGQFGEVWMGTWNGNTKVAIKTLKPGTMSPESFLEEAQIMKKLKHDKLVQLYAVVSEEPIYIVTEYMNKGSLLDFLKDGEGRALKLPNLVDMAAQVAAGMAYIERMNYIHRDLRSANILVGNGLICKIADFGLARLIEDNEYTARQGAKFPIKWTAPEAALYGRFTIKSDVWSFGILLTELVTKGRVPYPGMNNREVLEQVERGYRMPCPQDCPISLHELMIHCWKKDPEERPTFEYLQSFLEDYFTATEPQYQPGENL
# [14] = target: c-Src SH2; test: SH2 binding enrichment of the phosphorylated peptide, bacterial display (enrichment ratio); higher = better substrate or ligand; peptides without Tyr show the background
# [15] = target: SHP2-C SH2; test: as above
# [16] = target: Grb2 SH2 (UniProt P62993); test: as above
# 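Wherever SH2 binding enrichment of the phosphorylated peptide, bacterial display is given: peptide library displayed on the E. coli surface as eCPX fusions, selected cells deep-sequenced, score is each peptide's frequency after selection divided by its frequency in the input.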
# 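Wherever phosphorylation enrichment, bacterial display is given: 11-residue human phosphosite peptides and single-mutation variants displayed on the E. coli surface, counted by deep sequencing, each peptide's frequency after selection divided by its frequency in the unselected input library; frequency after pTyr selection over input frequency; kinase dosed for 20-30% of maximal phosphorylation in three min.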
# Fes, sequence (P07332 whole entry, looked up): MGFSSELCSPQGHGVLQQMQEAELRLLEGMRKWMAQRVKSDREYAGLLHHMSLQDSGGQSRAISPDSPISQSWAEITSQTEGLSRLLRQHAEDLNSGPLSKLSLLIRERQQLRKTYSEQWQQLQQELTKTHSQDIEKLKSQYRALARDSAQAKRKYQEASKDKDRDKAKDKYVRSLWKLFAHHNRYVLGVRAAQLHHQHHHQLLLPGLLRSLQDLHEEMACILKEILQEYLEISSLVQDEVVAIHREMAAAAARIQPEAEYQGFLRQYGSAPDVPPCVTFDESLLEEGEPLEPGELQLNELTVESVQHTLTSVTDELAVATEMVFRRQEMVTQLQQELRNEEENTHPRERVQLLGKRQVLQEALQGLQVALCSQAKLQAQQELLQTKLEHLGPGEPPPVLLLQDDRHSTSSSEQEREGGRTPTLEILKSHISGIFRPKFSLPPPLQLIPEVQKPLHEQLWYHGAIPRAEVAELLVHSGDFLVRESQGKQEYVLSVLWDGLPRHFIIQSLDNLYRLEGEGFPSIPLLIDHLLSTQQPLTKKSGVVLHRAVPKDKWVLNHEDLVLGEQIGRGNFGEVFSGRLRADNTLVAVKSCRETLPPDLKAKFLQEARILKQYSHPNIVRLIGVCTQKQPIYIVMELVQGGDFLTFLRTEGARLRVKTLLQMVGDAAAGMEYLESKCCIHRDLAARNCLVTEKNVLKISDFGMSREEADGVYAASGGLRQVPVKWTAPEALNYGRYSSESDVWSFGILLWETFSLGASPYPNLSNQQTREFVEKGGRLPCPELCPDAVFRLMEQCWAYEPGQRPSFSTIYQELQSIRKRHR
Sequence,SH2 binding enrichment [14],SH2 binding enrichment [15],SH2 binding enrichment [16],phosphorylation enrichment [1],phosphorylation enrichment [2],phosphorylation enrichment [3],phosphorylation enrichment [4],phosphorylation enrichment [5],phosphorylation enrichment [6],phosphorylation enrichment [7],phosphorylation enrichment [8],phosphorylation enrichment [9],phosphorylation enrichment [10],phosphorylation enrichment [11],phosphorylation enrichment [12],phosphorylation enrichment [13]
GLSSAYGDLTS [KRT8_Y427_G429D],0.608,0.655,0.878,0.506,0.413,0.659,0.429,0.56,0.464,0.536,0.479,0.535,0.535,0.718,0.486,0.454
RSGNCYLDIRP [FBN1_Y1535],0.615,0.782,0.688,0.802,0.633,1.27,0.7,0.58,0.583,1.04,0.514,1.45,0.544,1.06,0.728,0.567
SPPPAYTPMSG [ERBB4_Y1056],0.92,0.811,0.846,0.41,0.529,0.503,0.429,0.438,0.388,0.459,0.379,0.503,0.45,0.522,0.457,0.483
RAMRRYLERGE [ERBB3_Y680],0.411,0.554,0.716,0.636,0.61,0.576,0.563,0.719,0.455,0.615,0.686,0.607,0.711,0.722,0.679,0.608
VHNLDYFKMTT [FGFR3_Y647_K650M_YF],0.56,0.556,0.995,7,0.356,0.653,0.383,0.456,0.397,0.521,0.325,7.7,0.394,1.06,4.21,0.33
DPFHVYIKNHV [KCNE3_Y95_R99H_YF],0.643,0.839,0.978,0.469,0.354,1.32,0.735,0.671,0.403,0.915,0.585,1.2,0.519,1.22,0.918,0.382
IIEDPYYGNDF [ACP1_Y132_S137F],0.726,0.488,0.958,3.18,1.15,1.48,0.666,0.683,4.91,1.09,1.42,1.48,1.55,1.79,2.88,2.71
SQDSAYHSGIQ [FLG_Y3940],0.529,0.544,0.899,0.4,0.489,0.614,0.366,0.532,0.386,0.506,0.404,0.492,0.678,0.557,0.512,0.421
QDLTDYLMKIL [ACTA2_Y190_R185Q],0.861,1.23,1.33,0.807,0.809,1.55,0.772,0.523,0.546,1.13,0.558,1.34,0.916,1.01,0.698,0.657
SGIYQYIIAKF [FOXL2_Y83],1.07,1.05,1.24,6.4,8.1,1.72,5.98,10.6,3.69,6.06,9.49,0.852,6.52,1.15,4.7,4.03
IIEDPYFGNDF [ACP1_Y132_S137F_YF],0.519,0.662,0.769,0.791,0.487,1.43,0.695,0.664,2.98,0.871,0.757,1.3,0.823,1.36,0.908,1.11
RFLRGYRQDAY [HLA-A_Y137],0.628,0.556,1.1,0.677,1.2,0.827,0.432,0.43,1.14,0.922,0.483,0.927,0.764,1.15,0.664,0.647
PGLSSYGVPAS [FLNB_Y1530],0.545,0.658,0.898,0.56,0.497,0.738,0.435,0.543,0.474,0.913,0.408,0.599,0.482,0.677,0.526,0.661
RREWYYEVIIA [BACE1_Y260_V265A],0.415,0.55,0.673,4.47,1.52,0.733,0.442,0.539,0.926,0.542,0.764,1.26,0.513,1.3,2.9,0.462
SLRAHYDTPRS [DOK7_Y405],3.32,0.914,0.712,0.343,0.319,0.448,0.351,0.392,0.298,0.412,0.367,0.402,0.328,0.428,0.351,0.349
SFPPTYRYERG [INPPL1_Y661],0.489,0.605,0.831,0.498,0.505,0.592,0.43,0.362,0.427,0.373,0.29,0.449,0.437,0.73,0.49,0.431

# Now from value to sequence, other results behind:
SH2 binding enrichment [14],SH2 binding enrichment [15],SH2 binding enrichment [16],Sequence,phosphorylation enrichment [1],phosphorylation enrichment [2],phosphorylation enrichment [3],phosphorylation enrichment [4],phosphorylation enrichment [5],phosphorylation enrichment [6],phosphorylation enrichment [7],phosphorylation enrichment [8],phosphorylation enrichment [9],phosphorylation enrichment [10],phosphorylation enrichment [11],phosphorylation enrichment [12],phosphorylation enrichment [13]
0.808,0.538,0.833,REIIAYQPYGK [PRKCG_Y529_P524R],0.329,0.294,0.721,0.617,0.429,0.405,0.467,0.357,0.531,0.563,0.83,0.415,0.625
0.465,0.614,0.846,DRQASYLDKVR [KRT16_Y131_L128Q],0.39,0.388,0.662,0.419,0.39,0.385,0.494,0.324,0.609,0.399,0.536,0.424,0.418
0.571,0.52,0.669,LGEGSYGKVKE [STK11_Y60],1.21,0.887,1.5,0.868,1.29,0.863,1.12,0.574,1.58,0.862,1.75,0.783,0.939
0.388,0.552,0.833,YNDSAYNQQLI [ZPLD1_Y198_T197A],0.499,0.388,0.93,0.527,0.455,0.418,0.634,0.46,0.696,0.48,0.987,0.68,0.49
0.476,0.758,0.74,STSKTYVISRT [RBBP6_Y87],0.503,0.417,0.497,0.426,0.387,0.444,0.423,0.396,0.527,0.465,0.628,0.498,0.416
0.947,0.472,0.765,YGGRDYSLDEF [MYOF_Y1705],0.582,0.454,1.1,0.609,0.594,0.594,0.809,0.618,0.945,0.603,0.981,0.697,0.657
0.586,0.766,0.808,SGPRCYTIAAL [TTR_Y125_R124C],0.392,0.344,0.669,0.403,0.41,0.399,0.46,0.554,0.535,0.354,0.617,0.462,0.405
0.648,0.64,0.883,LEIETCRRLLD [KRT12_Y429_Y429C],0.722,0.411,1.33,0.913,0.939,0.415,1.01,0.474,1.07,0.759,1.2,1.2,0.635
0.424,0.648,0.64,VEEDTYTMPST [PTK2_Y407_D402V],0.697,1.6,1.31,0.675,0.879,4.81,1.18,0.741,1.12,3.5,4.74,0.984,6.55
0.567,0.672,0.989,CEHRGSLFLAI [TEK_Y897_Y897S_YF],0.501,0.422,1.16,0.564,0.55,0.457,0.944,0.533,1.04,0.457,1.03,0.725,0.427
0.938,0.825,0.998,YRDMDYRSYPH [RBM10_Y41_R46H],3.25,0.357,0.64,0.486,0.578,0.376,0.5,0.487,0.621,0.457,0.567,2.1,0.412
0.663,0.939,0.874,TILEHYRRTHC [MYBPC3_Y1119_V1115I],0.511,0.59,1.08,0.575,0.465,0.505,0.609,0.439,0.781,0.524,0.809,0.619,0.378
0.659,1.25,0.904,QLQVFYATRDQ [MIPEP_Y579_L582R],0.86,0.567,1.71,0.805,0.787,0.977,1.2,0.59,1.96,1.14,1.27,1,0.881
7.79,1.03,0.875,IVRSLYEDLED [VHL_Y185],0.505,0.424,1.08,0.573,0.584,0.393,0.68,1.17,1.01,0.564,1.19,0.73,0.509
0.467,0.793,1.01,IVLRSYPASDH [NID2_Y449_G453D],0.496,0.465,0.823,0.495,0.543,0.416,0.583,0.44,0.743,0.44,0.966,0.546,0.478
0.725,1.11,0.955,YGGLRYGYGGL [KRTAP20-2_Y13_V17G],0.407,0.381,0.839,0.427,0.418,0.76,0.559,0.407,0.671,1.42,0.645,0.536,0.959
0.485,0.654,0.709,FDGGCYEQLFV [MC4R_Y41_S36Y_YF],1.05,0.875,1.49,1.07,1.09,2.46,0.748,10.7,1.43,2.67,2.53,1.33,1.81
